For this assay, the target named is T1, Vitronectin from human plasma, SIGMA-ALDRICH (human, UniProt P04004 20-478).
T1 construct: mature
The experiment in a line: ELISA, fusion protein coated at 10 ug/ml, vitronectin from 10 ug/ml in two-fold dilutions, detected with peroxidase sheep anti-human vitronectin.

T1 sequence (P04004 20-478): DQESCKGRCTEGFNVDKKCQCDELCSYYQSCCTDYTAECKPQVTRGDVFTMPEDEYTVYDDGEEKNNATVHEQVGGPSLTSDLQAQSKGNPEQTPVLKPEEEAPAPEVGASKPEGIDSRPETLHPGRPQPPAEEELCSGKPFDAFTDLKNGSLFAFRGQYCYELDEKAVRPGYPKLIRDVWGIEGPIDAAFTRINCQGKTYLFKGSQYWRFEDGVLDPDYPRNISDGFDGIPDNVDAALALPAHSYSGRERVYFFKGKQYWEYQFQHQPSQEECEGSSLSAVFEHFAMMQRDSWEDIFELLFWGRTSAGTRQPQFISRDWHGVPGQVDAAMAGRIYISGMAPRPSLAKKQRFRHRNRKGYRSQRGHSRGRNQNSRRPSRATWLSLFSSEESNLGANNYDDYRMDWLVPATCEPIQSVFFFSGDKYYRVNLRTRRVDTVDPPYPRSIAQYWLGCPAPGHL

B1: purified LVL317 PE-PilA fusion protein (other)
chain: QIQKAEQNDVKLAPPTDVRSGYIRLVKNVNYYIDSESIWVDNQEPQIVHFDAVVNLDKGLYVYPEPKRYARSVRQYKILNCANYHLTQVRTDFYDEFWGQGLRAAPKKQKKHTLSLTPDTTLYNAAQIICANYGEAFSVDKKGGTKKAAVSELLQASAPYKADVELCVYSTNETTNCTGGKNGIAADITTAKGYVKSVTTSNGAITVKGDGTLANMEYILQATGNAATGVTWTTTCKGTDASLFPANFCGSVTQ
notes: Coated on microtiter plates at 10 ug/ml; also called PE-PilA fusion non His-tagged protein
Turning to B1, the binding result is given as “binds”.

Source of the values: patent US20160250313A1 (GlaxoSmithKline, published 2016).
